Measurements as given in patent US20040254352A1, “Lipid-polymer-conjugates” (priority 2001, published 2004).
Where “and” joins values, the source holds several entries; their conditions need not be identical. Equal values may be shown once.

Experiments:
[1] = Storage stability of prednisolone phosphate liposomes at 4° C. (percentage encapsulated prednisolone phosphate versus time); conditions: compared with poly(2-hydroxyethyl)-L-glutamine-diaminobutane DODASuc-conjugate-containing liposome
[2] = Comparative kinetics of 3H-labelled liposomes containing polymer-lipid-conjugates after a single intravenous injection to the rat (blood circulation time); conditions: for Blood circulation time of the liposomes compared with PEG-grafted liposomes: intravenous administration to rats; for Increase of blood circulation time: rat, single i.v. injection
Description: Single-dose intravenous injection of liposomal preparations, each containing ^3H-labelled cholesteryloleylether (Amersham) having 40-50 kBq of radioactivity, (compositions per 50 μmol lipid are shown in Table 1) was given into the tail-vein. Total Lipid administered was 5 μmol, except in the cases indicated.
Blood samples were collected from the tail vein of each rat at the following time points post-dose: 5 minutes and 4, 24 and 48 hours. The amount of sample collected was approx. 300 μl per sampling event.
Sampled blood was transferred into heparinised tubes and stored at −20° C.
A single aliquot of 100 μl was solubilised according to the following method:
Radioactivity was measured by LSC.
All radioactive measurements were performed using a Packard scintillation counter (1900TR). Counting time was to a statistical precision of ±0.2% or a maximum of 5 minutes, whichever comes first. The Packard 1900TR was programmed to automatically subtract background and convert counts per minute (CPM) to disintegrations per minute (DPM).
The increase of blood circulation time was assessed, wherein:
Moderate means effect on circulation time in between those shown by PEG-DSPE-containing liposomes and bare liposomes without polymer coating.
Slightly means effect on circulation time under the current conditions almost similar to that shown by bare liposomes.

[3] = Particle size and polydispersity of liposomes by (dynamic) light scattering; type: physicochemical
[4] = as above; type: physicochemical; conditions: DPPC/cholesterol/conjugate liposomes of Table 1 (Example 21); for Average particle size: dynamic light scattering
Description: The lipid loss during preparation of the liposomes was 25%, determined by comparing the final radioactivity of the preparation with the activity before the extrusion procedure. The suspension of liposomes was stored in a nitrogen atmosphere at 4° C. Liposomes were prepared using the film method, as described in example 20. Instead of egg phosphatidylcholine dipalmitoyl phosphatidylcholine was used. 5 mM HEPES buffer was added to the dry lipid film and shaken during 5 minutes in the presence of glass beads in order to enable complete hydration of the lipid film. The liposomes were sized by extrusion 12 times through 2 stacked PC membranes having pore sizes of 100 and 200 nm. […] See table 1 for the properties of the liposomal preparations.

[5] = Total Lipid administered 0.005 μmol
[6] = Total Lipid administered 0.05 μmol
[7] = Total Lipid administered 0.5 μmol
[8] = Total Lipid administered 5 μmol
[9] = prednisolone phosphate liposomes of Example 23, light scattering
[10] = 11.2 mg conjugate per 50 µmol lipid
[11] = 13.8 mg conjugate per 50 µmol lipid

| Molecule | Increase of blood circulation time [2, 8] | Polydispersity index [4] | Average particle size [4] | further results |
| --- | --- | --- | --- | --- |
| Poly(2-hydroxyethyl)-L-asparagine DODASuc [Ex. 11] | Good and Good § |  |  | Stability of liposomal preparation with encapsulated prednisolone phosphate [1]: slightly better result; Blood circulation time of the liposomes compared with PEG-grafted liposomes [2]: Results similar to those obtained with the corresponding PEG-grafted liposomes; Increase of blood circulation time [2, 5]: Slightly; Increase of blood circulation time [2, 6]: Good; Increase of blood circulation time [2, 7]: Good |
| Poly-L-threonine DODASuc [compound 14] |  |  |  | Mean particle size [3, 9]: about 85 nm |
| Cholesteryl-PHEG [Ex. 6] | Slightly | 0.116 | 138.7 ± 1.8 nm |  |
| Poly(D,L-methionine sulfoxide) DODASuc [Ex. 15] | Good | 0.062 | 159.9 ± 2.3 nm | Blood circulation time of the liposomes compared with PEG-grafted liposomes [2]: Results similar to those obtained with the corresponding PEG-grafted liposomes |
| Poly(2-hydroxyethyl)-DL-glutamine diaminobutane DODASuc [Ex. 7] |  | 0.073 | 159.0 ± 3.8 nm |  |
| Poly-[(2-hydroxypropyl)-L-glutamine]diaminobutane DODASuc [Ex. 5.2] |  |  |  | Average particle size [4, 10]: 163.9 ± 3.0 nm; Average particle size [4, 11]: 153.0 ± 0.9 nm; Polydispersity index [4, 10]: 0.068; Polydispersity index [4, 11]: 0.090 |
| PHEG-diaminobutane DODASuc [Ex. 5.1] | Good and Good § | 0.090 and 0.073 | 140.3 ± 2.2 nm and 159.0 ± 3.8 nm | Blood circulation time of the liposomes compared with PEG-grafted liposomes [2]: Results similar to those obtained with the corresponding PEG-grafted liposomes |
| poly-[N-(2-hydroxyethyl)-L-glutamine]-stearylamine [Ex. 20] |  | 0.167 | 171.6 ± 2.5 nm | Polydispersity index ([3]; EPC/cholesterol/PHEG-stearylamine liposomes of Example 20): 0.099±0.02; Mean particle size ([3]; EPC/cholesterol/PHEG-stearylamine liposomes of Example 20, light scattering (Malvern Zeta-sizer)): 93.6±0.9 nm |
| Poly-[(4-hydroxybutyl)-L-glutamine]diaminobutane DODASuc [Ex. 5.4] |  | 0.071 | 148.2 ± 1.7 nm |  |
| PEG-distearoylphosphatidylethanol-amine [PEG-DSPE, reference compound] | Good |  | 156.3 nm | Mean particle size [3, 9]: ~90 nm; Increase of blood circulation time [2, 5]: <Slightly; Increase of blood circulation time [2, 6]: Good; Increase of blood circulation time [2, 7]: Good |
| Poly(DL-glutamine DODASuc [Ex. 16] | Moderate |  |  |  |
| Poly(DL-asparagine) DODASuc [Ex. 17] | Moderate |  |  |  |
| Poly(DL-serine) DODASuc [Ex. 13] | Slightly |  |  |  |
| poly(HEG-co-dimethylaminoethylglutamine)diaminobutane DODASuc; 5% dimethylaminoethyl sidegroups [Ex. 9] | Moderate | 0.039 | 170.3 ± 2.5 nm |  |
| CCCCCCCCCCCCCCCCCCN(CCCCCCCCCCCCCCCCCC)C(=O)CCC(=O)NCCC(=O)NCCC(=O)NCCC(=O)N[C@@H](CCC(=O)NCCO)C(=O)NCCC(=O)NCCC(=O)NCCC(=O)NCCC(=O)N[C@@H](CCC(=O)NCCO)C(=O)NCCC(=O)NCCC(=O)NCCC(=O)N[C@@H](CCC(=O)NCCO)C(=O)NCCC(=O)NCCC(N)=O [Ex. 19, DODASuc-(β-Ala)3-HEG-(β-Ala)4-HEG-(β-Ala)3-HEG-(β-Ala)2-NH2] | Moderate |  |  |  |
| Poly(N-(2-hydroxyethyl)-L-glutamine) Having a Heptadecyloctadecylamine End Group [Ex. 2] |  | 0.205 | 143 ± 2 nm |  |
| Poly-[N-(2-hydroxyethyl)-L-glutamine] Having a Distearylamine End Group Introduced Via N-Boc-1,4-diaminobutane as Initiator [Ex. 3] |  | 0.056 | 153 ± 0.5 nm |  |
